Target: T1, soluble elk/Fc fusion protein (rat elk extracellular domain fused to human IgG1 Fc) (rat; human, UniProt P09759 18-540; P01857 99-330 = IgG part, limits assumed)
T1 construct: extracellular domain;domain: Fc region; Expressed transiently in mammalian host cells and purified on protein A sepharose
Test: Scatchard analysis; elk/Fc at various concentrations on CV1-EBNA-1 cells expressing LERK-5, detected with 125I-mouse anti-human IgG
Method: CV1-EBNA-1 cells in 10 cm² dishes were transfected with the recombinant expression vector containing LERK-5 DNA. The CV-1/EBNA-1 cell line (ATCC CRL 10478) constitutively expresses EBV nuclear antigen-1 driven from the CMV immediate-early enhancer/promoter. CV1-EBNA-1 was derived from the African Green Monkey kidney cell line CV-1 (ATCC CCL 70), as described by McMahan et al. (*EMBO J*. 10:2821, 1991).
The transfected cells were cultured for 24 hours, and the cells in each dish then were split into a 24-well plate. After culturing an additional 48 hours, a binding assay was conducted by the following procedure. The transfected cells (about 4×10^4 cells/well) were washed with BM-NFDM, which is binding medium (RPMI 1640 containing 25 mg/ml bovine serum albumin, 2 mg/ml sodium azide, 20 mM Hepes pH 7.2) to which 50 mg/ml nonfat dry milk has been added. The cells then were incubated for 1 hour at 37° C. with various concentrations of the elk/Fc fusion protein prepared in Example 2 or the hek/Fc fusion protein prepared in Example 3. Cells then were washed and incubated with a constant saturating concentration of a ^125I-mouse anti-human IgG in binding medium, with gentle agitation for 1 hour at 37° C. After extensive washing, cells were released via trypsinization. […]

T1 sequence (P09759 other isoform, or with tags, fused parts or gaps limits assumed): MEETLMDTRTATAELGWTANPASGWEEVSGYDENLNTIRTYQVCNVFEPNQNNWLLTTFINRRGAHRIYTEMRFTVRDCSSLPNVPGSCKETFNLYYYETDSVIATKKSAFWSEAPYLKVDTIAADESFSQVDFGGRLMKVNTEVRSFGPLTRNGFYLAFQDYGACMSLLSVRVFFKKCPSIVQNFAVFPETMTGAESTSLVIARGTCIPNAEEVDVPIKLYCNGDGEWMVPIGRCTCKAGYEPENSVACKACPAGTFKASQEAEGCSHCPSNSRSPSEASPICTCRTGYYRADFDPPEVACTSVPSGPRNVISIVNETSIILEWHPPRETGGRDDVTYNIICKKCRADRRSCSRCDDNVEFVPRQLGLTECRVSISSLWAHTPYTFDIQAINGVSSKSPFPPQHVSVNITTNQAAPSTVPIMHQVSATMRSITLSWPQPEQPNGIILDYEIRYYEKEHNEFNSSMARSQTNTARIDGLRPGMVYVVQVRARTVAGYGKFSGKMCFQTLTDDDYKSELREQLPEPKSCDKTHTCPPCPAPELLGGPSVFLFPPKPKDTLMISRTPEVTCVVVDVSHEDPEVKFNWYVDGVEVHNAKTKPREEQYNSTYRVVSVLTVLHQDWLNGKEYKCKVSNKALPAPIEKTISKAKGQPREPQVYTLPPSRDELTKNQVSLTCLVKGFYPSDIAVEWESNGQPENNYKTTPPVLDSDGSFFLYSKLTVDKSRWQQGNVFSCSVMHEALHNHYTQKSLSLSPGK

B1: human LERK-5 (recombinant, full length, expressed on the surface of transfected CV1-EBNA-1 cells) (ligand)
chain: KSIVLEPIYWNSSNSKFLPGQGLVLYPQIGDKLDIICPKVDSKTVGQYEYYKVYMVDKDQADRCTIKKENTPLLNCAKPDQDIKFTIKFQEFSPNLWGLEFQKNKDYYIISTSNGSLEGLDNQEGGVCQTRAMKILMKVGQDASSAGSTRNKDPTRRPELEAGTNGRSSTTSPFVKPNPGSSTDGNSAGHSGNNILGSEVALFAGIASGCIIFIVIIITLVVLLLKYRRRHRKHSPQHTTTLSLSTLATPKRSGNNNGSEPSDIIIPLRTADSVFCPHYEKVSGDYGHPVYIVQEMPPQSPANIYYKV
notes: The whole coding region of clone λ6 was expressed from pDC410 in CV1-EBNA-1 cells; also called clone λ6 protein
Ka: 1.05e+09 M⁻¹

From US6479459 (IMMUNEX, dated 2002)
